One block for each binder: values may come before it.
Tests used:
[1] = biological target: T1, human NT5E-Biotin (NT5E is GenbankID: NP_002517.1, position: 1-552) (human, UniProt P21589 27-552, biotin label (site not stated)); experiment: ELISA on streptavidin-captured human NT5E-Biotin; HRP goat anti-mouse IgG
T1 construct: range 1-552; Recombinant soluble antigen made by Akeso (batch 20160505), biotinylated and captured on streptavidin; also called HNT5E-Biotin; human NT5E (1-552)-Biotin
T1 sequence (looked up): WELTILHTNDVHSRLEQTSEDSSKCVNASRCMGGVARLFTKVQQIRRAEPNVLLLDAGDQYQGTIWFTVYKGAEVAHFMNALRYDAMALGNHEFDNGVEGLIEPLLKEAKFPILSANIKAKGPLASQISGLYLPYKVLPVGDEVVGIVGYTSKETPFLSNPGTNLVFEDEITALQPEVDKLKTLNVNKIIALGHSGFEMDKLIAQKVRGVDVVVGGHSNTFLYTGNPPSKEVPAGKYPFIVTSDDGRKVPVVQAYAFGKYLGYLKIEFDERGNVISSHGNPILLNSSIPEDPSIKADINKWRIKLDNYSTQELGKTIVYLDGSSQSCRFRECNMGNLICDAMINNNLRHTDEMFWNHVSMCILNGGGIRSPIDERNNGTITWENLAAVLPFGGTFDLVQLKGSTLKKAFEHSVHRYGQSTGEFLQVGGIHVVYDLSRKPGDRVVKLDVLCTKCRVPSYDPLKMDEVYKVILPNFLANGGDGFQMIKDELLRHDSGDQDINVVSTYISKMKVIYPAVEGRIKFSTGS

[2] = biological target: T2, human CD73 expressed on cells (human PBMC CD8+ T cells and CD19+ B cells); endogenous CD73 of MDA-MB-231 and … (human, UniProt P21589 27-549); experiment: cell-based or functional assay
T2 sequence (looked up): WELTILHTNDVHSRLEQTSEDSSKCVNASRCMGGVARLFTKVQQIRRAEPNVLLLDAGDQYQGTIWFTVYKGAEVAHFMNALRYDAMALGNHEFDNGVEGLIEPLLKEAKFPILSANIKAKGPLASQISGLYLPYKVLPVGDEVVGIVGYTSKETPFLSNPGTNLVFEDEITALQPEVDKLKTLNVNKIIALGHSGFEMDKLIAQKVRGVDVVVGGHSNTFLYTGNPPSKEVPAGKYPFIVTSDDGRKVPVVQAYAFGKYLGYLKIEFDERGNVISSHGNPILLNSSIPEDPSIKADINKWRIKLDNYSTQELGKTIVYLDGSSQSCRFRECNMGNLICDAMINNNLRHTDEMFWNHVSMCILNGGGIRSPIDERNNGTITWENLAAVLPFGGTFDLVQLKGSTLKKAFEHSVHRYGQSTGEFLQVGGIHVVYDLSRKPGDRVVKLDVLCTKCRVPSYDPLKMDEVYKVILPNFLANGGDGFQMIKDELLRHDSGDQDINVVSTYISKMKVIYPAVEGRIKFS

[3] = biological target: T2, human CD73 expressed on cells (human …); experiment: FACS on human PBMC, binding to CD8+ T cells
Method: (§1) The experimental steps are as follows: The PBMCs were resuscitated, centrifuged at 1,200 rpm for 5 min, and the supernatant was discarded, resuspended in complete medium, counted, and incubated overnight at 37° C. The solution was centrifuged at 1,200 rpm for 5 min, cells were harvested, diluted antibody solution was added at 100 μL/well, mixed well, and incubated in a refrigerator at 4° C. for 1 hour. The solution was centrifuged at 750×g for 5 min, the supernatant was discarded, and washed 2 times with 200 μL of 1×PBS (containing 1% BSA and 0.05% NaN3). Anti-human CD3-FITC (2 μL/100 μL), anti-human CD19-PE (2 μL/100 μL) (Biolegend, article number: 302254), anti-human CD8-PerCP Cy5.5 (1 μL/100 μL), anti-human IgG Fc-AF647 (1:300) (Southern Biotech, catalog number: 9040-31) were added, and incubated at 4° C. for 30 minutes. The solution was centrifuged at 750×g for 5 min, the supernatant was discarded, washed once with 200 μL of 1×PBS (including 1% BSA and 0.05% NaN3); resuspended with 300 μL of 1×PBS (including 1% BSA and 0.05% NaN3), transferred to flow tubes, and loaded for testing.

[4] = biological target: T2, human CD73 expressed on cells (human …); experiment: FACS on human PBMC, binding to CD19+ B cells
Method: as §1

EC50 [1]: 0.018 nM
B1: murine anti-CD73 monoclonal antibody 19F3 (antibody, V domains shown)
VH: EVQLQQSGPELVKPGASMRMSCKASGYSFTGYTMNWVKQSHGKNLEWIGLINPYNAGTSYNQKFKGKATLTVDKSSSTAYMELLSLTSEDSAVYYCARSEYRYGGDYFDYWGQGTTLTVSS
VL: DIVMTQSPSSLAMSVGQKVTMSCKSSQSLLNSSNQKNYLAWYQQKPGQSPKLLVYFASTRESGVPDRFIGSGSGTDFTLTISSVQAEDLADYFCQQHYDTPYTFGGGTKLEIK
notes: Mouse hybridoma antibody purified on protein A; also called murine antibody 19F3; Murine 19F3

Inhibition rate EC50 (nM): enzyme activity of CD73 expressed by human PBMC membrane (AMP/ATP CellTiter-Glo read-out) [2]: 0.226 nM
EC50 [3]: 0.288 nM
EC50 [4]: 0.108 nM
B2: control antibody CPI-006 (Mupadolimab) (antibody, human IgG1, kappa, N297Q, V domains shown)
VH: QVQLVQSGAEVEKPGASVKVSCKASGYTFTSYWITWVRQAPGQGLEWMGDIYPGSGNTNYNEKFKTRVTITADKSTSTAYMELSSLRSEDTAVYYCAKEGGLTTEDYALDYWGQGTLVTVSS
VL: EIVLTQSPATLSLSPGERATLSCRASKNVSTSGYSYMHWYQQKPGQAPRLLIYLASNLESGIPPRFSGSGYGTDFTLTINNIESEDAAYYFCQHSRELPFTFGQGTKVEIKR
notes: made by Akeso

Reference: patent US20240218074A1 (AKESO BIOPHARMA, published 2024)
